We go through 2 molecules from patent EP2718312B1 (TLA Targeted Immunotherapies AB, dated 2018).

Bridges are numbered along the chain shown (N, C = ends). The star is where a group is joined. Biotin = O=C1N[C@H]2[C@H](CS[C@H]2CCCCC(=O)*)N1

Assay [1] has as its target T1, hCCR2b (human, UniProt P41597 1-374).
T1 chain: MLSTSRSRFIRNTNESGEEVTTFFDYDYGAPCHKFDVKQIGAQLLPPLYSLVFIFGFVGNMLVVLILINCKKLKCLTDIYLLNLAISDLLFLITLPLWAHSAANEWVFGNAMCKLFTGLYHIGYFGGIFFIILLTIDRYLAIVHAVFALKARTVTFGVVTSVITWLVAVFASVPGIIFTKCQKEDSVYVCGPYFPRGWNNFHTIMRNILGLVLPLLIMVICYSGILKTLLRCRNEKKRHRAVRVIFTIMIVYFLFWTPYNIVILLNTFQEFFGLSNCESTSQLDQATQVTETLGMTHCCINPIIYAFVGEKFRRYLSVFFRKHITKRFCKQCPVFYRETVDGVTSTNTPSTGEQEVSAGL
Briefly: cell-based or functional assay.

Assay [2] has as its target hCCR5 (human, UniProt P51681 1-352). Briefly: cell-based or functional assay.

Sequence of hCCR5 (P51681 whole entry): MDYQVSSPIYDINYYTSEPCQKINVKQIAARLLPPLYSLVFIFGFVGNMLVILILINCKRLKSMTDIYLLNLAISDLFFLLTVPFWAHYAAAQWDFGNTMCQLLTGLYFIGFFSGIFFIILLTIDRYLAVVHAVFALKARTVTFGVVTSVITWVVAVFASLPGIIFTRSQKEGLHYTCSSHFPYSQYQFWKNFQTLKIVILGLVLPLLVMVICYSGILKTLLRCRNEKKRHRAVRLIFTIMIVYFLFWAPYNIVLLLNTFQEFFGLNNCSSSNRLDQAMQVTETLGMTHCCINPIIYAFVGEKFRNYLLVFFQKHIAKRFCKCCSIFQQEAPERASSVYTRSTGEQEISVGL

B1: recombinant native MCP-2 (ligand, human, UniProt P80075 24-99, looked up)
chain: QPDSVSIPITCCFNVINRKIPIQRLESYTRITNIQCPKEAVIFKTKRGKEVCADPKERWVRDSMKHLDQIFQNLKP
On to B1, for which, in assay [1], the “EC50, Aequorin assay (partial agonist)” value was 23.5 nM.

B2: biotinRANTES (CCL5) (ligand)
chain: SPYSSDTTPCCFAYIARPLPRAHIKEYFYTSGKCSNPAVVFVTRKNRQVCANPEKKWVREYINSLEK(Biotin)S-OH
modifications: disulfide 10-34, 11-50; also: TFA salt
For the molecule B2, the “EC50, agonist activity in an Aequorin assay” value in assay [2] amounted to 0.5 nM.
